Assay results published in patent US10709769B2, “Use of endostatin peptides for the treatment of fibrosis” (University of Pittsburgh—Of the Commonwealth System of …, priority 2009, dated 2020).

Experiments:
[1] = system: human primary lung fibroblasts; test: FN and Col1α1 western blot in TGF-β-treated primary lung fibroblasts; type: cell-based; settings: normal human lung fibroblasts; TGF-β 10 ng/ml 24 h, then 5 μg/ml rE or peptide 48 h; vs TGF-β alone
Procedure: (§1) Human primary lung and skin fibroblasts were cultured. The explanted lungs of normal organ donors, patients with SSc or IPF, and clinically involved skin of SSc patients, a morphea patient and healthy donors were used for primary fibroblast culture. Approximately 2-cm pieces of peripheral lung and skin were minced and fibroblasts were cultured in Dulbecco's modified Eagle's medium (DMEM; Mediatech, Herndon, Va.) supplemented with 10% FBS, penicillin, streptomycin, and anti-mycotic agent, as previously described (Feghali et al., Arthritis Rheum 1999; 42:1451-7). All the cells were used between passages 3-6.
Cellular lysates were obtained from cultured fibroblasts as previously described (Pilewski et al., Am J Pathol 2005; 166:399-407). Briefly, 2.0×10^5 primary fibroblasts were cultured in 35-mm wells in 0.5% FBS-containing medium supplemented with 10 ng/ml of human recombinant TGF-β or PBS as vehicle control for 24 h, following which 5 μg/ml of human rE, endostatin peptides (E1-E4), or DMSO (vehicle) was added for 48 h. In some experiments, endostatin peptides were used without TGF-β stimulation. Cellular lysates were analyzed by western blot. Signals were detected following incubation with horseradish peroxidase-conjugated secondary antibody and chemiluminescence (Perkin Elmer Life Sciences, Inc., Boston, Mass.). The intensity of individual bands with expected molecular sizes was semi-quantitatively analyzed using the image/J® software available at on the internet (/rsb.info.nih.gov/ij/index.html), and normalized to individual GAPDH intensity.
To evaluate whether endostatin modulates production of ECM components in fibroblasts, FN and Col1α1 expression was examined in normal human lung fibroblasts by western blot analysis. Cells were treated with 5 µg/ml rE for 48 h with or without pre-stimulation with human TGF-β for 24 h. […] To define the functional domain of endostatin that mediates its inhibitory effect, four different peptides were synthesized corresponding to different regions of endostatin (Table 1).

mouse skin = test: TGF-β-induced dermal fibrosis in vivo in mouse skin; settings: mice, intradermal, 10 μg/ml with TGF-β 10 ng/ml, one week post-injection
Procedure: FIG. 9. E4 reverses TGF β-induced dermal fibrosis even if administered 3 days following TGF-β.
CB57BL6/J male mice were purchased from The Jackson Laboratory (Bar Harbor, Me.). Human rE (10 μg/ml) or Endostatin peptides (10 μg/ml) in combination with TGF-β (10 ng/ml), or TGF-β alone were injected intradermally on the back of mice in a total volume of 100 μl 1×PBS. Mice were injected in two different skin sites and sacrificed one week post-injection. Skin surrounding the injection site was harvested and fixed in 10% formalin prior to embedding in paraffin.
(§2) Six μm sections of paraffin-embedded human and mouse skin tissues were stained with hematoxylin and eosin (H&E). In some experiments, sections were stained with Masson trichrome which identifies collagens. Images were taken on a Nikon Eclipse 800 microscope. The thickness of the dermis was measured in 6 random fields of each section using the image/J® software. Data are shown in arbitrary units.
E4, a peptide representing the carboxy terminus of human endostatin, can attenuate fibrosis triggered by multiple fibrogenic factors. The anti-fibrotic effects of E4 can be detected whether administered concomitantly with or following the fibrogenic trigger. The efficacy of E4 was confirmed in […] pre-clinical models of fibrosis: a) bleomycin-induced dermal fibrosis in vivo in mouse skin, b) TGF-β induced dermal fibrosis in mouse skin, and c) bleomycin-induced pulmonary fibrosis. E4 peptide or a control peptide (E1; representing the amino terminal region of endostatin) were administered at the same time as TGF-β or bleomycin or 3-4 days following TGF-β or bleomycin. Mice were sacrificed one and two weeks after TGF-β-initiation of dermal fibrosis, and two and three weeks after bleomycin-induced pulmonary fibrosis. Two different modes of administration of the E4 peptide were also tested. It was confirmed that intraperitoneal and intratracheal administration was effective. The amount of E4 that was administered ws 10 μg/ml in a total volume of 100 μl for skin and IP injections and 50 μl for IT administration.

human skin explants = test: Ex vivo human skin fibrosis organ culture, dermal thickness; type: cell-based; settings: for dermal thickness, baseline effect: injected alone without TGF-β, rE 1, 5, 10 μg/ml, peptides 10 μg/ml
Procedure: Human abdominal skin was obtained from corrective plastic surgery. As previously described (Yasuoka et al., The Open Rheumatol J 2008; 2:17-22), subcutaneous fat tissue was removed uniformly and skin tissue was cut into 1.5 cm×1.5 cm sections. The following were injected intradermally in a total volume of 100 μl 1×PBS: rE alone (1-10 μg/ml), endostatin peptides alone (10 μg/ml), rE or endostatin peptides (1-20 μg/ml) in combination with TGF-β (10 ng/ml), and TGF-β alone (10 ng/ml). In some experiments, human skin was first injected with TGF-β for 48 h followed by recombinant endostain (rE) administration in the same injection site as TGF-β. Explants containing complete epidermal and dermal layers were cultured in an air liquid interface with the epidermal and keratin layers side up and exposed to air. The culture medium was replaced every other day. After 1 or 2 weeks, skin tissue corresponding to an area with 8-mm diameter centered around the injection site was harvested using disposable 8-mm Acu Punch® (Acuderm inc., Lauderdale, Fla.). Skin tissue was fixed in 10% formalin prior to embedding in paraffin.
as §2

[2] = system: human primary skin fibroblasts; test: TGF-β-induced ECM production in primary skin (dermal) fibroblasts, western blot; type: cell-based; settings: dermal fibroblasts from healthy controls, SSc or morphea patients
Procedure: as §1
Cellular lysates were obtained from cultured fibroblasts as previously described (Pilewski et al., Am J Pathol 2005; 166:399-407). […] Cellular lysates were analyzed by western blot. Signals were detected following incubation with horseradish peroxidase-conjugated secondary antibody and chemiluminescence (Perkin Elmer Life Sciences, Inc., Boston, Mass.). The intensity of individual bands with expected molecular sizes was semi-quantitatively analyzed using the image/J® software available at on the internet (/rsb.info.nih.gov/ij/index.html), and normalized to individual GAPDH intensity. […]

[3] = system: Human umbilical vein endothelial cells (HUVECs); test: Tubular formation assay in Matrigel; type: cell-based; settings: 50 nM, 24 hours
Procedure: The ability of endostatin peptide to inhibit angiogenesis was examined in tubular formation assay using Matrigel® culture. Human umbilical vein endothelial cells (HUVECs) were maintained in endothelial cell basal medium-2 (EBM-2; Clonetics, San Diego, Calif.) supplemented with EBM-2 MV SingleQuots®. HUVECs (5×10^4) were cultured in duplicate on 24-well Matrigel® plates (BD Biosciences, San Diego, Calif.) alone, or in the presence of rE or E4 peptide (50 nM) in EBM-2 at 37° C. DMSO was used as vehicle control. After 24 hours, images were captured using a […] microscope. The degree of cord formation was quantified by measuring the area occupied by tubes in 6 random fields per well. Three independent experiments were performed.

[4] = cited from earlier work

Molecule	FN and Col1α1 levels/production [1]	TGF-β-induced dermal fibrosis (dermal thickness) (mouse skin)	dermal thickness, baseline effect (human skin explants)	other results
H-^1HSHRDFQPVLHLVALNSPLSGGMRGIRGADFQCFQQARAVGLAGT^45-OH (H-HSHRDFQPVLHLVALNSPLSGGMRGIRGADFQCFQQARAVGLAGT-OH; UniProt P39060 1572-1616, looked up, fragment) [E1, human endostatin fragment, amino acids 1-45; amino terminal control peptide]	had no effect	did not alter	–	–
H-^71IVNLKDELLFPSWEALFSGSEGPLKPGARIFSFDGKDVLRHPTWP^115-OH (H-IVNLKDELLFPSWEALFSGSEGPLKPGARIFSFDGKDVLRHPTWP-OH; UniProt P39060 1642-1686, looked up, fragment) [E2, human endostatin fragment, amino acids 71-115]	–	significantly reduced	–	–
H-^133SYCETWRTEAPSATGQASSLLGGRLLGQSAASCHHAYIVLCIENSFMT^180-OH (H-SYCETWRTEAPSATGQASSLLGGRLLGQSAASCHHAYIVLCIENSFMT-OH; cysteine pairing not given here; UniProt P39060 1704-1751, looked up, fragment) [E3, human endostatin fragment, amino acids 133-180]	–	prevented	tendency towards reduction	development of fibrosis as measured by dermal thickness (human skin explants; peptides 10 μg/ml with TGF-β 10 ng/ml, vs TGF-β alone): significantly abolished
full-length recombinant human endostatin (protein, UniProt P39060 1572-1754, looked up, Endostatin, full-length recombinant human endostatin purchased from Sigma-Aldrich) Endostatin: HSHRDFQPVLHLVALNSPLSGGMRGIRGADFQCFQQARAVGLAGTFRAFLSSRLQDLYSIVRRADRAAVPIVNLKDELLFPSWEALFSGSEGPLKPGARIFSFDGKDVLRHPTWPQKSVWHGSDPNGRRLTESYCETWRTEAPSATGQASSLLGGRLLGQSAASCHHAYIVLCIENSFMTASK	dramatically reduced	–	tendency towards reduction	TGF-β-induced ECM production (FN, Col1α1) [2]: reduced; TGF-β-induced dermal fibrosis, delayed treatment (human skin explants; injected 2 days after TGF-β administration): significantly ameliorated; dermal thickness (human skin explants; rE 1, 5, 10 μg/ml injected simultaneously with TGF-β 10 ng/ml, one week, dose-dependent): significantly reduced; inhibition of tubular structure formation [3]: significant
ENDSTAR: recombinant human endostatin purified from E. coli containing an additional nine-amino acid sequence, his-tagged; approved for non-small-cell lung cancer in China (protein, UniProt P39060 1572-1754, looked up, Endostatin additional nine-residue His tag, approved for non-small-cell lung cancer in China) Endostatin: HSHRDFQPVLHLVALNSPLSGGMRGIRGADFQCFQQARAVGLAGTFRAFLSSRLQDLYSIVRRADRAAVPIVNLKDELLFPSWEALFSGSEGPLKPGARIFSFDGKDVLRHPTWPQKSVWHGSDPNGRRLTESYCETWRTEAPSATGQASSLLGGRLLGQSAASCHHAYIVLCIENSFMTASK	–	–	–	half-life [4]: short
